± gives the uncertainty stated by the source.

Sequences and labels used below:
B1: Tripartite motif-containing protein 44, residues 174 to 218; numbered along this chain, Q96DX7 (parent)
chain: VAKRKCPDHGLDLSTYCQEDRQLICVLCPVIGAHQGHQLSTLDEA

In the series the parent is B1. The series can be described thus: abundance fitness (aPCA) (normalised: wild type 0, dead -1); higher = more abundant; growth selection in yeast, the domain comes from the species named. The conditions noted are these: Homo sapiens.
Take VAKRKCCDHGLDLSTYCQEDRQLICVLCPVIGAHQGHQLSTLDEA [P7C]: the abundance fitness was -0.141 ± 0.049.
VAKRKCVDHGLDLSTYCQEDRQLICVLCPVIGAHQGHQLSTLDEA [P7V]: the abundance fitness is -0.25 ± 0.029.
In the case of VAKRKCNDHGLDLSTYCQEDRQLICVLCPVIGAHQGHQLSTLDEA [P7N], the abundance fitness was -0.565 ± 0.067.
On to VAKRKCRDHGLDLSTYCQEDRQLICVLCPVIGAHQGHQLSTLDEA [P7R], for which the abundance fitness was -0.168 ± 0.029.
The same measure for VAKRKCEDHGLDLSTYCQEDRQLICVLCPVIGAHQGHQLSTLDEA [P7E]: -0.446 ± 0.033.
On to VAKRKCADHGLDLSTYCQEDRQLICVLCPVIGAHQGHQLSTLDEA [P7A], for which the abundance fitness was -0.013 ± 0.029.
The same measure for VAKRKCQDHGLDLSTYCQEDRQLICVLCPVIGAHQGHQLSTLDEA [P7Q]: 0.038 ± 0.039; for VAKRKCDDHGLDLSTYCQEDRQLICVLCPVIGAHQGHQLSTLDEA [P7D]: -0.481 ± 0.059; for VAKRKCIDHGLDLSTYCQEDRQLICVLCPVIGAHQGHQLSTLDEA [P7I]: -0.092 ± 0.055.
To VAKRKCFDHGLDLSTYCQEDRQLICVLCPVIGAHQGHQLSTLDEA [P7F] belongs -0.321 ± 0.16; to VAKRKCMDHGLDLSTYCQEDRQLICVLCPVIGAHQGHQLSTLDEA [P7M], -0.036 ± 0.037.
On to VAKRKCYDHGLDLSTYCQEDRQLICVLCPVIGAHQGHQLSTLDEA [P7Y], for which the abundance fitness was -0.226 ± 0.048.
The same measure for VAKRKCKDHGLDLSTYCQEDRQLICVLCPVIGAHQGHQLSTLDEA [P7K]: -0.342 ± 0.04.
To VAKRKCSDHGLDLSTYCQEDRQLICVLCPVIGAHQGHQLSTLDEA [P7S] belongs -0.089 ± 0.039; to VAKRKCLDHGLDLSTYCQEDRQLICVLCPVIGAHQGHQLSTLDEA [P7L], -0.124 ± 0.032; to VAKRKCTDHGLDLSTYCQEDRQLICVLCPVIGAHQGHQLSTLDEA [P7T], 0.065 ± 0.045.
The same measure for VAKRKCGDHGLDLSTYCQEDRQLICVLCPVIGAHQGHQLSTLDEA [P7G]: -0.169 ± 0.027.
With VAKMKCPDHGLDLSTYCQEDRQLICVLCPVIGAHQGHQLSTLDEA [R4M], the abundance fitness stood at 0.023 ± 0.033.
The same measure for VAKLKCPDHGLDLSTYCQEDRQLICVLCPVIGAHQGHQLSTLDEA [R4L]: -0.061 ± 0.03; for VAKAKCPDHGLDLSTYCQEDRQLICVLCPVIGAHQGHQLSTLDEA [R4A]: -0.062 ± 0.029.
The same measure for VAKKKCPDHGLDLSTYCQEDRQLICVLCPVIGAHQGHQLSTLDEA [R4K]: 0.007 ± 0.034; for VAKHKCPDHGLDLSTYCQEDRQLICVLCPVIGAHQGHQLSTLDEA [R4H]: -0.198 ± 0.051.
To VAKVKCPDHGLDLSTYCQEDRQLICVLCPVIGAHQGHQLSTLDEA [R4V] belongs -0.086 ± 0.029.
With VAKWKCPDHGLDLSTYCQEDRQLICVLCPVIGAHQGHQLSTLDEA [R4W], the abundance fitness was -0.162 ± 0.028.
With VAKGKCPDHGLDLSTYCQEDRQLICVLCPVIGAHQGHQLSTLDEA [R4G], the abundance fitness is -0.057 ± 0.025.
As to VAKSKCPDHGLDLSTYCQEDRQLICVLCPVIGAHQGHQLSTLDEA [R4S], the abundance fitness was -0.054 ± 0.032.
In the case of VAKPKCPDHGLDLSTYCQEDRQLICVLCPVIGAHQGHQLSTLDEA [R4P], the abundance fitness was -0.314 ± 0.037.
As to VAKTKCPDHGLDLSTYCQEDRQLICVLCPVIGAHQGHQLSTLDEA [R4T], the abundance fitness was -0.07 ± 0.032.
The same measure for VAKEKCPDHGLDLSTYCQEDRQLICVLCPVIGAHQGHQLSTLDEA [R4E]: -0.046 ± 0.028.
To VAKDKCPDHGLDLSTYCQEDRQLICVLCPVIGAHQGHQLSTLDEA [R4D] belongs 0.016 ± 0.033; to VAKNKCPDHGLDLSTYCQEDRQLICVLCPVIGAHQGHQLSTLDEA [R4N], 0.071 ± 0.064.
Consider VAKCKCPDHGLDLSTYCQEDRQLICVLCPVIGAHQGHQLSTLDEA [R4C], for which the abundance fitness was -0.248 ± 0.056.
The same measure for VAKIKCPDHGLDLSTYCQEDRQLICVLCPVIGAHQGHQLSTLDEA [R4I]: -0.046 ± 0.042.
To VAKFKCPDHGLDLSTYCQEDRQLICVLCPVIGAHQGHQLSTLDEA [R4F] belongs -0.041 ± 0.047.
The same measure for VAGRKCPDHGLDLSTYCQEDRQLICVLCPVIGAHQGHQLSTLDEA [K3G]: -0.052 ± 0.026.
Consider VAARKCPDHGLDLSTYCQEDRQLICVLCPVIGAHQGHQLSTLDEA [K3A], for which the abundance fitness was -0.134 ± 0.027.
To VATRKCPDHGLDLSTYCQEDRQLICVLCPVIGAHQGHQLSTLDEA [K3T] belongs -0.013 ± 0.033.
On to VACRKCPDHGLDLSTYCQEDRQLICVLCPVIGAHQGHQLSTLDEA [K3C], for which the abundance fitness is -0.379 ± 0.033.
To VADRKCPDHGLDLSTYCQEDRQLICVLCPVIGAHQGHQLSTLDEA [K3D] belongs 0.024 ± 0.032; to VANRKCPDHGLDLSTYCQEDRQLICVLCPVIGAHQGHQLSTLDEA [K3N], -0.042 ± 0.074; to VAQRKCPDHGLDLSTYCQEDRQLICVLCPVIGAHQGHQLSTLDEA [K3Q], -0.038 ± 0.033.
To VAPRKCPDHGLDLSTYCQEDRQLICVLCPVIGAHQGHQLSTLDEA [K3P] belongs -0.093 ± 0.031; to VALRKCPDHGLDLSTYCQEDRQLICVLCPVIGAHQGHQLSTLDEA [K3L], -0.09 ± 0.027; to VAHRKCPDHGLDLSTYCQEDRQLICVLCPVIGAHQGHQLSTLDEA [K3H], -0.08 ± 0.057.
The same measure for VASRKCPDHGLDLSTYCQEDRQLICVLCPVIGAHQGHQLSTLDEA [K3S]: -0.056 ± 0.031; for VAERKCPDHGLDLSTYCQEDRQLICVLCPVIGAHQGHQLSTLDEA [K3E]: 0.02 ± 0.028; for VAVRKCPDHGLDLSTYCQEDRQLICVLCPVIGAHQGHQLSTLDEA [K3V]: -0.076 ± 0.028.
In the case of VAFRKCPDHGLDLSTYCQEDRQLICVLCPVIGAHQGHQLSTLDEA [K3F], the abundance fitness was -0.124 ± 0.054.
For the variant VAWRKCPDHGLDLSTYCQEDRQLICVLCPVIGAHQGHQLSTLDEA [K3W], the abundance fitness was -0.196 ± 0.029.
The same measure for VAYRKCPDHGLDLSTYCQEDRQLICVLCPVIGAHQGHQLSTLDEA [K3Y]: -0.137 ± 0.052; for VARRKCPDHGLDLSTYCQEDRQLICVLCPVIGAHQGHQLSTLDEA [K3R]: -0.073 ± 0.026.
Turning to VAIRKCPDHGLDLSTYCQEDRQLICVLCPVIGAHQGHQLSTLDEA [K3I], the abundance fitness was found to be 0.032 ± 0.04.
To RAKRKCPDHGLDLSTYCQEDRQLICVLCPVIGAHQGHQLSTLDEA [V1R] belongs -0.39 ± 0.057.
The same measure for SAKRKCPDHGLDLSTYCQEDRQLICVLCPVIGAHQGHQLSTLDEA [V1S]: -0.027 ± 0.061; for WAKRKCPDHGLDLSTYCQEDRQLICVLCPVIGAHQGHQLSTLDEA [V1W]: -0.231 ± 0.051.
The same measure for YAKRKCPDHGLDLSTYCQEDRQLICVLCPVIGAHQGHQLSTLDEA [V1Y]: -0.226 ± 0.055; for QAKRKCPDHGLDLSTYCQEDRQLICVLCPVIGAHQGHQLSTLDEA [V1Q]: -0.159 ± 0.16.

Values taken from the Human Domainome abundance scans (Beltran et al. 2025).
